Results on four molecules are retold here after patent US20140274782A1, “AFFINITY REAGENTS AND METHODS FOR DETECTION, PURIFICATION, AND PROTEOMIC ANALYSIS OF METHYLATED PROTEINS” (The Board of Trustees of the Leland Stanford Junior …, priority 2013, published 2014).

In one test the test system is 3×MBT domain of L3MBTL1. Nature of the test: Triple SILAC pull-down, 3xMBT/3xMBTD355N ratio (cytoplasmic, nuclear and chromatin fractions of 293T cells).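 As to all read-outs here: proteins quantified with MaxQuant, requiring at least two unique peptides and quantification in both label directions, normalized to the mean of proteins from a digested loading control.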 The test is classed as binding, human. The following applies: SILAC ratio, pull-down 3xMBT vs 3xMBTD355N; for 3xMBT/D355N UNC Heavy: experiment with UNC0638 in heavy SILAC media; for 3xMBT/D355N UNC Light: experiment with UNC0638 in light SILAC media.

The target in the next test is T1, G9a and GLP (Homo sapiens, UniProt Q96KQ7+Q9H9B1).
T1 sequence (Q96KQ7 2-1210 limits assumed): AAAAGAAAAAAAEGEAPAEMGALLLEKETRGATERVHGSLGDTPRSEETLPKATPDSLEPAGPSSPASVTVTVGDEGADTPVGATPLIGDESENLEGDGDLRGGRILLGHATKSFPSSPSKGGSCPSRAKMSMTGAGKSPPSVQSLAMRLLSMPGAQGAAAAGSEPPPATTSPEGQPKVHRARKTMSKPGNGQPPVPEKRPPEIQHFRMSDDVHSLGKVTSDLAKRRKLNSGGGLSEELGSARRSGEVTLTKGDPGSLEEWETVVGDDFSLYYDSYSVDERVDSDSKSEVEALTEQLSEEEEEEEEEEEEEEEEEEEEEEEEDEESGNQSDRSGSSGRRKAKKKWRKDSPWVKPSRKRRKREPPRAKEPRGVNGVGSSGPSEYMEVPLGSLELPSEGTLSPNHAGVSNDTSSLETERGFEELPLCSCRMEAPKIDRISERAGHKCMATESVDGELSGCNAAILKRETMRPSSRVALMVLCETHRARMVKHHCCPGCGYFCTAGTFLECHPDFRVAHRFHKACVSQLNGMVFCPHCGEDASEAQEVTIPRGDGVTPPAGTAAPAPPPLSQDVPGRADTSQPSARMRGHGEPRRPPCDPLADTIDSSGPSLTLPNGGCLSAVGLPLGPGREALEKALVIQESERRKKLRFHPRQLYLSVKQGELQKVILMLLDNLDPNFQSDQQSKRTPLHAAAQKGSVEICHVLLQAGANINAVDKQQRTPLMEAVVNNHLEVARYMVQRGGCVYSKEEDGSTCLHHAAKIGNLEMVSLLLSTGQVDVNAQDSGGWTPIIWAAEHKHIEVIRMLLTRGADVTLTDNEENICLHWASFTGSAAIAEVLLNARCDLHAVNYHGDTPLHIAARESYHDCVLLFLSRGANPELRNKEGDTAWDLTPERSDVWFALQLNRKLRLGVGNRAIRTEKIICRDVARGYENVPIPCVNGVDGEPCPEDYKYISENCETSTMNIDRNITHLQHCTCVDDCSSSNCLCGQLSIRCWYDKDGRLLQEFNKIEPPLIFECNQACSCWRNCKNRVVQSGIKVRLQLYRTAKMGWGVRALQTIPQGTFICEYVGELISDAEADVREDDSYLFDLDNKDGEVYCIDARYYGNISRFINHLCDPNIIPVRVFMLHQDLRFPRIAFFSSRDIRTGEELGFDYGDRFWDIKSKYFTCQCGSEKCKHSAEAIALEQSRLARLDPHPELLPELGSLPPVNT
T1 sequence (Q9H9B1 2-1298 limits assumed): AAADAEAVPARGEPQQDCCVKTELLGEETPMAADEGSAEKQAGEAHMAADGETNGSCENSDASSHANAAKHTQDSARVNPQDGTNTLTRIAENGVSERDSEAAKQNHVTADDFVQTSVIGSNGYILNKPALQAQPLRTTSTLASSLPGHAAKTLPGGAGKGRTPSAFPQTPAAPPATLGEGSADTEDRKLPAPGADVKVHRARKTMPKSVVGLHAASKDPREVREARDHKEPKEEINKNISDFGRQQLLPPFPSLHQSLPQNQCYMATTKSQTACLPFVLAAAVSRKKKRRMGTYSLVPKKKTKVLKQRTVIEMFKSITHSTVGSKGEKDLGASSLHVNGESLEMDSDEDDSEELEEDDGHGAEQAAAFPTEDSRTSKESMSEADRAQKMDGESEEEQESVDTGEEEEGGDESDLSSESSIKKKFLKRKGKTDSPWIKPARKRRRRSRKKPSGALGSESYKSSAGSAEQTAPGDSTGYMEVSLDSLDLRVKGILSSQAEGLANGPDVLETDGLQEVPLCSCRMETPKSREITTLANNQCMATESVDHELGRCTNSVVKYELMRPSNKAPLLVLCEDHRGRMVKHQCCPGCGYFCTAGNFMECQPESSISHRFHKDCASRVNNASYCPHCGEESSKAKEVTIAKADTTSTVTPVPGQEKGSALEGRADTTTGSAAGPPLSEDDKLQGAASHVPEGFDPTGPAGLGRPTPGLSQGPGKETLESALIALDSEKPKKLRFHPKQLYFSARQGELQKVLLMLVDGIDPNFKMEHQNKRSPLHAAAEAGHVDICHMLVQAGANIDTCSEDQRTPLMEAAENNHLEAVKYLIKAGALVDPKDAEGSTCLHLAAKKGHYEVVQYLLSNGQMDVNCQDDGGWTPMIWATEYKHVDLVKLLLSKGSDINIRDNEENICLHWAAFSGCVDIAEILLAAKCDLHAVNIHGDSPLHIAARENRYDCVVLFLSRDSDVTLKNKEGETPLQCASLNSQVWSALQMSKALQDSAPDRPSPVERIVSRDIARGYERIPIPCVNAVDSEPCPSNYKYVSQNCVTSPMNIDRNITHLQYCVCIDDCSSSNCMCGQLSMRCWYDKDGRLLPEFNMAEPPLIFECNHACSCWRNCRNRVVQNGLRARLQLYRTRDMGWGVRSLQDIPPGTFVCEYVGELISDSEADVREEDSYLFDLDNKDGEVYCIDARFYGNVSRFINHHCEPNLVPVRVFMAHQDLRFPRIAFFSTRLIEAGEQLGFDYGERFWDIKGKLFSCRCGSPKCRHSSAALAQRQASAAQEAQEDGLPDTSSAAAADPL
Nature of the test: Triple SILAC pull-down after UNC0638 treatment of 293T cells, DMSO/UNC0638 ratio of protein captured by 3×MBT.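 As to all read-outs here: mass spectrometry (Q-Exactive) SILAC quantitation, DMSO/UNC0638 ratio computed after subtracting 3×MBTD355N mutant pull-down background, only proteins with at least twofold 3×MBT over mutant signal considered.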 The following applies: for Relative to UNC0638 UNC Heavy / Relative to UNC0638 UNC Light: SILAC ratio DMSO/UNC0638 of protein pulled down with 3xMBT; for Relative to UNC0638 UNC Heavy: UNC0638 in heavy SILAC media; for Relative to UNC0638 UNC Light: UNC0638 in light SILAC media; for Relative to UNC0638 Average: average of UNC Light and UNC Heavy experiments. Details: cells were treated for 24 hours with UNC0638 at 2.5 μM or DMSO vehicle control; endogenous in cells; host or cells: HEK 293T. The test is classed as cell-based.

B1: HNRPDL (protein, UniProt O14979 1-420, looked up)
Heterogeneous nuclear …: MEVPPRLSHVPPPLFPSAPATLASRSLSHWRPRPPRQLAPLLPSLAPSSARQGARRAQRHVTAQQPSRLAGGAAIKGGRRRRPDLFRRHFKSSSIQRSAAAAAATRTARQHPPADSSVTMEDMNEYSNIEEFAEGSKINASKNQQDDGKMFIGGLSWDTSKKDLTEYLSRFGEVVDCTIKTDPVTGRSRGFGFVLFKDAASVDKVLELKEHKLDGKLIDPKRAKALKGKEPPKKVFVGGLSPDTSEEQIKEYFGAFGEIENIELPMDTKTNERRGFCFITYTDEEPVKKLLESRYHQIGSGKCEIKVAQPKEVYRQQQQQQKGGRGAAAGGRGGTRGRGRGQGQNWNQGFNNYYDQGYGNYNSAYGGDQNYSGYGGYDYTGYNYGNYGYGQGYADYSGQQSTYGKASRGGGNHQNNYQPY
For the molecule B1, in the test on 3×MBT domain of L3MBTL1, the “3xMBT/D355N UNC Heavy” value is given as 2.81 log base 2 and the “3xMBT/D355N UNC Light” value is recorded as 3.02 log base 2. Moreover, in the test with G9a and GLP, the “Relative to UNC0638 UNC Heavy” value came out at 0.16 log base 2, the “Relative to UNC0638 UNC Light” value was determined as 0.24 log base 2 and the “Relative to UNC0638 Average” value is on record as 0.20 log base 2.

B2: DDX5 (protein, UniProt P17844 1-614, looked up)
Probable ATP-dependent RNA …: MSGYSSDRDRGRDRGFGAPRFGGSRAGPLSGKKFGNPGEKLVKKKWNLDELPKFEKNFYQEHPDLARRTAQEVETYRRSKEITVRGHNCPKPVLNFYEANFPANVMDVIARQNFTEPTAIQAQGWPVALSGLDMVGVAQTGSGKTLSYLLPAIVHINHQPFLERGDGPICLVLAPTRELAQQVQQVAAEYCRACRLKSTCIYGGAPKGPQIRDLERGVEICIATPGRLIDFLECGKTNLRRTTYLVLDEADRMLDMGFEPQIRKIVDQIRPDRQTLMWSATWPKEVRQLAEDFLKDYIHINIGALELSANHNILQIVDVCHDVEKDEKLIRLMEEIMSEKENKTIVFVETKRRCDELTRKMRRDGWPAMGIHGDKSQQERDWVLNEFKHGKAPILIATDVASRGLDVEDVKFVINYDYPNSSEDYIHRIGRTARSTKTGTAYTFFTPNNIKQVSDLISVLREANQAINPKLLQLVEDRGSGRSRGRGGMKDDRRDRYSAGKRGGFNTFRDRENYDRGYSSLLKRDFGAKTQNGVYSAANYTNGSFGSNFVSAGIQTSFRTGNPTGTYQNGYDSTQQYGSNVPNMHNGMNQQAYAYPATAAAPMIGYPMPTGYSQ
Take B2: in the test with 3×MBT domain of L3MBTL1, the “3xMBT/D355N UNC Heavy” value stood at 3.00 log base 2 and the “3xMBT/D355N UNC Light” value was determined as 2.92 log base 2. In addition, in the test with G9a and GLP, the “Relative to UNC0638 UNC Heavy” value amounted to 0.31 log base 2, the “Relative to UNC0638 UNC Light” value is listed as 0.10 log base 2 and the “Relative to UNC0638 Average” value amounted to 0.20 log base 2.

B3: CRKL (protein, UniProt P46109 1-303, looked up)
Crk-like protein: MSSARFDSSDRSAWYMGPVSRQEAQTRLQGQRHGMFLVRDSSTCPGDYVLSVSENSRVSHYIINSLPNRRFKIGDQEFDHLPALLEFYKIHYLDTTTLIEPAPRYPSPPMGSVSAPNLPTAEDNLEYVRTLYDFPGNDAEDLPFKKGEILVIIEKPEEQWWSARNKDGRVGMIPVPYVEKLVRSSPHGKHGNRNSNSYGIPEPAHAYAQPQTTTPLPAVSGSPGAAITPLPSTQNGPVFAKAIQKRVPCAYDKTALALEVGDIVKVTRMNINGQWEGEVNGRKGLFPFTHVKIFDPQNPDENE
As to B3, in the test on 3×MBT domain of L3MBTL1, the “3xMBT/D355N UNC Heavy” value worked out at 1.16 log base 2 and the “3xMBT/D355N UNC Light” value is given as 1.59 log base 2. For the same molecule, in the test with G9a and GLP, the “Relative to UNC0638 UNC Heavy” value is recorded as 0.37 log base 2, the “Relative to UNC0638 UNC Light” value worked out at 0.03 log base 2 and the “Relative to UNC0638 Average” value was found to be 0.20 log base 2.

B4: DHX15 (protein, UniProt O43143 1-795, looked up)
ATP-dependent RNA helicase …: MSKRHRLDLGEDYPSGKKRAGTDGKDRDRDRDREDRSKDRDRERDRGDREREREKEKEKELRASTNAMLISAGLPPLKASHSAHSTHSAHSTHSTHSAHSTHAGHAGHTSLPQCINPFTNLPHTPRYYDILKKRLQLPVWEYKDRFTDILVRHQSFVLVGETGSGKTTQIPQWCVEYMRSLPGPKRGVACTQPRRVAAMSVAQRVADEMDVMLGQEVGYSIRFEDCSSAKTILKYMTDGMLLREAMNDPLLERYGVIILDEAHERTLATDILMGVLKEVVRQRSDLKVIVMSATLDAGKFQIYFDNCPLLTIPGRTHPVEIFYTPEPERDYLEAAIRTVIQIHMCEEEEGDLLLFLTGQEEIDEACKRIKREVDDLGPEVGDIKIIPLYSTLPPQQQQRIFEPPPPKKQNGAIGRKVVVSTNIAETSLTIDGVVFVIDPGFAKQKVYNPRIRVESLLVTAISKASAQQRAGRAGRTRPGKCFRLYTEKAYKTEMQDNTYPEILRSNLGSVVLQLKKLGIDDLVHFDFMDPPAPETLMRALELLNYLAALNDDGDLTELGSMMAEFPLDPQLAKMVIASCDYNCSNEVLSITAMLSVPQCFVRPTEAKKAADEAKMRFAHIDGDHLTLLNVYHAFKQNHESVQWCYDNFINYRSLMSADNVRQQLSRIMDRFNLPRRSTDFTSRDYYINIRKALVTGYFMQVAHLERTGHYLTVKDNQVVQLHPSTVLDHKPEWVLYNEFVLTTKNYIRTCTDIKPEWLVKIAPQYYDMSNFPQCEAKRQLDRIIAKLQSKEYSQY
As to B4, in the test on 3×MBT domain of L3MBTL1, the “3xMBT/D355N UNC Heavy” value was 2.98 log base 2 and the “3xMBT/D355N UNC Light” value is recorded as 2.54 log base 2. Further, in the test with G9a and GLP, the “Relative to UNC0638 UNC Heavy” value came out at 0.13 log base 2, the “Relative to UNC0638 UNC Light” value is reported as 0.27 log base 2 and the “Relative to UNC0638 Average” value is on record as 0.20 log base 2.
